Assay [1] has as its target T1, monovalent hVISTA-ECD (amino acids 32-193 of SEQ ID NO: 1 with a 7xHis tail) (human, UniProt Q9H7M9 33-193).
T1 construct: analyte of the SPR assays; also called huVISTA-His; human VISTA-ECD
The experiment in a line: SPR 37C, pH 7.4 over pH 6.0. As to the method: (§1) For this assay, ‘029, ‘761 and ‘767were reformatted as hIgG1f isotype and were expressed as both standard hIgG1f and in hIgG1f afucosylated formats to compare against the hIgG1.3f Fc. An SPR kinetics assay was conducted to measure koff and KD binding affinity measurements for VISTA Abs at acidic and physiological pH using a Biacore® T100 instrument (GE Healthcare). […] Antibodies were diluted to 25 nM in PBST pH 7.4, and were captured across active biosensor flow cells at 5 ul/min for 45 seconds. A concentration series of 1600 - 0.78 nM (pH 7.4) and 100 - 0.78 nM (pH 6.0) monovalent hVISTA-ECD (SEQ ID NO: 325) was prepared running buffer, and was injected over the captured antibodies at 40 ul/min to measure association and dissociation. Two 15 second injections of 10 mM glycine pH 1.5 were used to regenerate the Protein A capture surface between assay cycles. Rate constants ka (kₒₙ) and kd (koff) were derived from reference flow cell and 0 nM blank-subtracted sensorgrams, and were fit to a 1:1 binding model in Biacore® T200 Evaluation Software v.2.0. The affinity constant, KD was calculated as the ratio of rate constants koff/kₒₙ for each VISTA antibody. Ratios of koff and KD at pH 7.4 / pH 6.0 were calculated to compare off-rate and affinity improvement at acidic pH relative to physiological pH.

For assay [2], the target named is T1, monovalent hVISTA-ECD (amino acids …). Nature of the assay: SPR 37C, pH 6.0 over pH 6.0.
For assay [3] the target is unchanged. The experiment in a line: SPR 37C, pH 6.45 over pH 6.0. As to the method: (§2) Human VISTA binding kinetics of P1-061029 (“ ‘029”), P1-068761 (“ ‘761”) and P1-068767 (“ ‘767”) (as IgG1.3 antibodies) were measured at pH values between pH 7.4 and pH 6.0, i.e., at pH 6.9 and pH 6.45 using a Biacore® T100 instrument (GE Healthcare). […] Antibodies were diluted to 25 nM in PBST pH 7.4, and were captured across active biosensor flow cells at 5 ul/min for 45 seconds. A concentration series of 100 - 0.78 nM monovalent hVISTA-ECD (SEQ ID NO: 325) was prepared pH 7.4, 6.9, 6.45 and 6.0 running buffers, and was injected over the captured antibodies at 40 ul/min to measure association and dissociation. Two 15 second injections of 10 mM glycine pH 1.5 were used to regenerate the Protein A capture surface between assay cycles. Rate constants ka (kₒₙ) and kd (koff) were derived from reference flow cell and 0 nM blank-subtracted sensorgrams, and were fit to a 1:1 binding model in Biacore® T200 Evaluation Software v.2.0. The affinity constant, KD was calculated as the ratio of rate constants koff/kₒₙ for each VISTA antibody. Ratios of koff and KD at each pH relative to pH 6.0 were calculated to evaluate how the VISTA koff and KD change as the buffer pH shifts to physiological, and are shown in Table 7. […] As the buffer pH shifts from acidic to physiological, VISTA koff and KD both weaken for ‘761 and ‘767. Physiological pH data for ‘761 and ‘767 for comparison is referenced from Table 7 and noted with an asterisk (*).

The target in assay [4] is T2, avidin (ThermoFisher Scientific catalog #21128) (UniProt P02701 25-152).
T2 construct: pI control protein
T2 sequence (P02701 25-152 limits assumed): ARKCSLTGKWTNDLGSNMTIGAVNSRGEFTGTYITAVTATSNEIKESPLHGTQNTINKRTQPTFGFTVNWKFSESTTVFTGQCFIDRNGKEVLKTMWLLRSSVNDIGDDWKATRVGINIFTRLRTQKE
The experiment in a line: SPR 25C, Ab on Protein A, pH 6 and pH 7.4.

The target of assay [5] is T3, BSA (Calbiochem catalog #126593) (UniProt P02769 25-607).
T3 construct: pI control protein
T3 sequence (P02769 25-607 limits assumed): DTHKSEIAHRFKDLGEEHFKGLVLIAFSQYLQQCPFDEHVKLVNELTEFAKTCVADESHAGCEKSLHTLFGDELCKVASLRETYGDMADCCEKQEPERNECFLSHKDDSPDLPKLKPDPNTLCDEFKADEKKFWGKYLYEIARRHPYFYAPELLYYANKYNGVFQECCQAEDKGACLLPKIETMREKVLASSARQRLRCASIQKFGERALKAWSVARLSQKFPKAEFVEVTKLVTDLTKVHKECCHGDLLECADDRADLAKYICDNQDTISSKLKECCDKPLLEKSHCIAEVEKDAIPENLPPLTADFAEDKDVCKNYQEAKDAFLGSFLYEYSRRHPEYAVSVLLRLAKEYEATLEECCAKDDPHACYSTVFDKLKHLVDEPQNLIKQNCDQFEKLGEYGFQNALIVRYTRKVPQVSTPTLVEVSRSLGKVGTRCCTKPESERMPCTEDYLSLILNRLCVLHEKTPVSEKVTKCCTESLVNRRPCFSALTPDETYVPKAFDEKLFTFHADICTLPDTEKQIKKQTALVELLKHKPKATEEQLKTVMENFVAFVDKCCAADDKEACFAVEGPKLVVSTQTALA
Nature of the assay: SPR 25C, Ab on Protein A, pH 6 and pH 7.4.

Assay [6] concerns the target T1, monovalent hVISTA-ECD (amino acids …). Nature of the assay: SPR 37C, Ab on Protein A, hVISTA-ECD 100-0.78 nM, pH 6.0. On the procedure:
as §2

Assay [7] shares this target. The experiment in a line: SPR 37C, Ab on Protein A, hVISTA-ECD 1600-0.78 nM, pH 7.4. On the procedure:
as §1

The target is the same in assay [8]. Nature of the assay: SPR 37C, Ab on Protein A, hVISTA-ECD 100-0.78 nM, pH 6.45. On the procedure:
as §2

Where a chain is given by its changes, count along the chain named.

T1 sequence (Q9H7M9 other isoform, or with tags, fused parts or gaps limits assumed): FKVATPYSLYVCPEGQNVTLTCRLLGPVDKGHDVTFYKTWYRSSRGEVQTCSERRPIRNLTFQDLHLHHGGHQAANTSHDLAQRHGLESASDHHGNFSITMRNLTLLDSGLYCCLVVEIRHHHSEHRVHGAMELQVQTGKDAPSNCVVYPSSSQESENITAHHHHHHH

B1: P1-061029.IgG1.3 (antibody)
heavy: EVQLVESGGGLVQPGKSLRLSCAASGFTLDDYAMHWVRQAPGKGLEWVSGINWNSANIGYADSVKGRFTISRDNAKNSLYLQMNSLRTEDTALYYCAKVPGYSGGWIDAFDVWGQGTMVTVSSASTKGPSVFPLAPSSKSTSGGTAALGCLVKDYFPEPVTVSWNSGALTSGVHTFPAVLQSSGLYSLSSVVTVPSSSLGTQTYICNVNHKPSNTKVDKRVEPKSCDKTHTCPPCPAPEAEGAPSVFLFPPKPKDTLMISRTPEVTCVVVDVSHEDPEVKFNWYVDGVEVHNAKTKPREEQYNSTYRVVSVLTVLHQDWLNGKEYKCKVSNKALPAPIEKTISKAKGQPREPQVYTLPPSREEMTKNQVSLTCLVKGFYPSDIAVEWESNGQPENNYKTTPPVLDSDGSFFLYSKLTVDKSRWQQGNVFSCSVMHEALHNHYTQKSLSLSPG
light: not shown
notes: IgG1.3; also called P1-061029 (parent); P1-061029-18
As usually defined, the Kd is the constant that tells how readily two partners part at equilibrium. A higher Kd goes with a looser complex. Usually koff stands for a measure of how fast the partners let go of each other. Higher therefore signals a short-lived complex. For orientation: kon means a measure of how fast the partners come together. Low readings indicate slower complex formation, high ones faster complex formation. On to B1, for which, in assay [1], the “KD ratio (7.4/6)” value amounted to 5.8 and the “kd ratio (7.4/6)” value was 0.9. In assay [2], the “KD ratio to pH 6.0” value came to 1 and the “koff ratio to pH 6.0” value was 1. Also, in assay [3], the “KD ratio to pH 6.0” value turned out to be 2.7 and the “koff ratio to pH 6.0” value came to 0.7. Besides, in assay [4], the binding result is recorded as “no binding (tested: 10 RU; analyte 100-10 nM)”. Moreover, the binding result in assay [5] was “no binding (tested: 10 RU; analyte 100-10 nM)”. Also, in assay [6], the Kd was 2 nM, the koff turned out to be 0.0057 s⁻¹ and the kon was 2.9e+06 M⁻¹ s⁻¹. In assay [7], this molecule came in with a dissociation constant Kd of 42 nM, a koff of 0.0068 s⁻¹ and an association rate constant (kon) of 160000 M⁻¹ s⁻¹. In addition, in assay [8], binding was characterised by a dissociation constant (Kd) of 5.3 nM, the koff turned out to be 0.004 s⁻¹ and the kon was 740000 M⁻¹ s⁻¹.

B2: P1-068761.IgG1.3 (antibody)
heavy: B1 heavy with D30E, Y32E, A56E, N57E, G104H, F110E
light: not shown
notes: IgG1.3; also called P1-068761-20; P1-068761 hIgG1.3f
Consider B2, for which, in assay [1], the “KD ratio (7.4/6)” value is 2560. Besides, the “kd ratio (7.4/6)” value in assay [1] worked out at 26.3. In addition, the entries for the “KD ratio to pH 6.0” value in assay [2] and in assay [3] were 1 and 18.4, respectively. Further, the “koff ratio to pH 6.0” value in assay [2] worked out at 1; in assay [3], 3.2. For the same molecule, the binding result in assay [4] and in assay [5] was “no binding (tested: 10 RU; analyte 100-10 nM)” throughout. Also, the Kd worked out at 1.1 nM in assay [6], 11000 nM in assay [7] and 20 nM in assay [8]. Further, the koff in assay [6] worked out at 0.00066 s⁻¹; in assay [7], 0.042 s⁻¹; in assay [8], 0.0021 s⁻¹. The kon in assay [6] is 600000 M⁻¹ s⁻¹; in assay [7] it was 3800 M⁻¹ s⁻¹; in assay [8], 110000 M⁻¹ s⁻¹.

For the origin of these results see patent publication US20230192860A1 (Bristol-Myers Squibb, published 2023).
